Patent US20110300138A1 (published 2011)

Columns and labels:
[1] = molecular target: full length wild type human TSHR (human) (UniProt P16473); experiment: TSHR260-AP bridge ELISA, wild type TSHR on wells; IgG at 10 µg/mL in HBD
[2] = molecular target: full length human TSHR with mutation Arg255 Asp (human) (UniProt P16473); experiment: TSHR260-AP bridge ELISA, Arg255 Asp TSHR on wells; IgG at 10 µg/mL in HBD
[3] = molecular target: full length wild type human TSHR (human) (UniProt P16473); experiment: TSHR260-AP bridge ELISA, wild type TSHR on wells; IgG at 0.1 µg/mL in HBD
[4] = molecular target: full length human TSHR with mutation Arg255 Asp (human) (UniProt P16473); experiment: TSHR260-AP bridge ELISA, Arg255 Asp TSHR on wells; IgG at 0.5 µg/mL in HBD
[5] = molecular target: TSH receptor (TSHR), full length human, coated on tubes (human) (UniProt P16473); experiment: inhibition of 125I-TSH binding to TSHR coated tubes; 1 µg/mL, diluted in HBD serum pool
[6] = molecular target: TSH receptor (TSHR), full length human, coated on tubes (human) (UniProt P16473); experiment: inhibition of 125I-TSH binding to TSHR coated tubes; 0.01 µg/mL, diluted in HBD serum pool
[7] = molecular target: human thyroid stimulating hormone receptor (TSHR), full length (human) (UniProt P16473); experiment: 125I-K1-70 Fab (competitor) binding to TSHR coated tubes; test sample 0.1 µg/mL in HBD serum
[8] = molecular target: thyroid stimulating hormone receptor (full length human TSHR) (human) (UniProt P16473); experiment: ELISA, inhibition of TSH-biotin binding to TSHR coated wells; 100 µg/mL, diluted in assay buffer
[9] = molecular target: human thyroid stimulating hormone receptor (TSHR), full length (human) (UniProt P16473); experiment: 125I-K1-70 Fab (competitor) binding to TSHR coated tubes; test sample 0.01 µg/mL in assay buffer
[10] = molecular target: thyroid stimulating hormone receptor (full length human TSHR) (human) (UniProt P16473); experiment: ELISA, inhibition of TSH-biotin binding to TSHR coated wells; 100 µg/mL, diluted in HBD serum pool

## 9D33 IgG (antibody)
[1]
  Mean absorbance at 405 nm (absorbance at 405 nm): 0.481
[2]
  Mean absorbance at 405 nm (absorbance at 405 nm): 0.534
[3]
  Mean absorbance at 405 nm (absorbance at 405 nm): 0.102
[4]
  Mean absorbance at 405 nm (absorbance at 405 nm): 0.242
[5]
  Inhibition of binding (%): 50.8%
[6]
  Inhibition of binding (%): 3.6%
[7]
  Inhibition of binding (%): 12.7%
[8]
  Inhibition of binding (%): 86.8%
[9]
  Inhibition of binding (%): 5%
[10]
  Inhibition of binding (%): 84%
